Consider one substance from PMC4493999.

For the assay, the target named is anaphase-promoting complex/cyclosome (APC/C) complex (human (endogenous in HeLa)) (UniProt P30260). The experiment in a line: co-IP.
Sequence of UniProt P30260 (P30260 whole entry, looked up, one chain of several): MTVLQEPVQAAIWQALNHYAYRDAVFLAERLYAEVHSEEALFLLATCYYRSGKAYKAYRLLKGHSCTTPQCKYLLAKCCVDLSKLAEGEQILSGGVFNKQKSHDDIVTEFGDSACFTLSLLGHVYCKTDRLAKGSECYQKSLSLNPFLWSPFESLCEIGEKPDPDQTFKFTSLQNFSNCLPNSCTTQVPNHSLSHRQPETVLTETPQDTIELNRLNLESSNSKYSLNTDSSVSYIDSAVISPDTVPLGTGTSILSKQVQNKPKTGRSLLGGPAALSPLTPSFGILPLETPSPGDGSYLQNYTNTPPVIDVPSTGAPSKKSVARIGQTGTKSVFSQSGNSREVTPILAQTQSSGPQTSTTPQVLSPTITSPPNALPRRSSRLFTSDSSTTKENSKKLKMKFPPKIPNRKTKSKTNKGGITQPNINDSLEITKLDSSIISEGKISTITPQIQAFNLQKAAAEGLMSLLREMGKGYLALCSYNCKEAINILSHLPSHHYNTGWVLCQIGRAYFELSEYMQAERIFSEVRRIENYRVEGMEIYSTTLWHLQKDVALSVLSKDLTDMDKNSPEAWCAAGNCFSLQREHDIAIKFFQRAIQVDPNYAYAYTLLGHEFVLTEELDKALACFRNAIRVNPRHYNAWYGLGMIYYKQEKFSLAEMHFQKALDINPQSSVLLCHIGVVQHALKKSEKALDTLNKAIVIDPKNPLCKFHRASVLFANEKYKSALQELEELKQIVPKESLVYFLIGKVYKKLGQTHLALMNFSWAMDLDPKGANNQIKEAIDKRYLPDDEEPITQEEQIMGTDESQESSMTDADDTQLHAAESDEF

With “HA-tagged human Cdh1 S40D (from UniProt Q9UM11 1-496) (natural protein)”, the amount coprecipitated, percent of that of Cdh1 S40A stood at 20% and the amount coprecipitated, percent of that of wild-type Cdh1 was found to be 30%.
